Measurements: patent US20240270821A1, “GIP/GLP1/GCG TRI-RECEPTOR AGONISTS AND USES THEREOF” (priority 2023, published 2024)

Assays:
Assay in all cases: cell-based or functional assay
[1] = target: hGLP-1R (Homo sapiens, UniProt P43220)
[2] = target: T1, human GIP receptor (human) (UniProt P48546)
T1 sequence (looked up): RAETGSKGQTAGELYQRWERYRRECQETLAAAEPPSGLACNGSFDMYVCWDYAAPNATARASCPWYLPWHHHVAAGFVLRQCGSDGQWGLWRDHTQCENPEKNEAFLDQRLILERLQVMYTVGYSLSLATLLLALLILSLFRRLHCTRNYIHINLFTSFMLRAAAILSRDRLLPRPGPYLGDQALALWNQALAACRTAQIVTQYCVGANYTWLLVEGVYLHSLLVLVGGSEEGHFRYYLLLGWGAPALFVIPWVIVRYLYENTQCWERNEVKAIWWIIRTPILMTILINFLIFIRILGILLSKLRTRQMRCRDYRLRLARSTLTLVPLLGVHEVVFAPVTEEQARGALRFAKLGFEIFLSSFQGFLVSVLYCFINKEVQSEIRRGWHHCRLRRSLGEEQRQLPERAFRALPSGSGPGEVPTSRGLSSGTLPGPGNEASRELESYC

[3] = target: human glucagon receptor (human) (UniProt P47871)
Chain of human glucagon receptor (human) (P47871 26-477): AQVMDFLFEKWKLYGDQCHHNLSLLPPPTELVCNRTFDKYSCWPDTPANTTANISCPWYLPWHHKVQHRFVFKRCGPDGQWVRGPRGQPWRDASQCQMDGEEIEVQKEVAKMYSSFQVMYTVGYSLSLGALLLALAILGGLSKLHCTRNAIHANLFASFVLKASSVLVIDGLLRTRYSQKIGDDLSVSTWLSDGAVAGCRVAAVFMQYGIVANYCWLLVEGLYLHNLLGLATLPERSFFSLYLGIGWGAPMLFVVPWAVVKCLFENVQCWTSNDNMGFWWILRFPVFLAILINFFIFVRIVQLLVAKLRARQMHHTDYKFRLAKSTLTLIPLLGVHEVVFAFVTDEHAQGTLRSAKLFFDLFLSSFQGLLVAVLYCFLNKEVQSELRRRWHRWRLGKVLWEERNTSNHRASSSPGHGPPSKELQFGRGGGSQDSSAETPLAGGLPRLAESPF

Chain of hGLP-1R (P43220 24-463): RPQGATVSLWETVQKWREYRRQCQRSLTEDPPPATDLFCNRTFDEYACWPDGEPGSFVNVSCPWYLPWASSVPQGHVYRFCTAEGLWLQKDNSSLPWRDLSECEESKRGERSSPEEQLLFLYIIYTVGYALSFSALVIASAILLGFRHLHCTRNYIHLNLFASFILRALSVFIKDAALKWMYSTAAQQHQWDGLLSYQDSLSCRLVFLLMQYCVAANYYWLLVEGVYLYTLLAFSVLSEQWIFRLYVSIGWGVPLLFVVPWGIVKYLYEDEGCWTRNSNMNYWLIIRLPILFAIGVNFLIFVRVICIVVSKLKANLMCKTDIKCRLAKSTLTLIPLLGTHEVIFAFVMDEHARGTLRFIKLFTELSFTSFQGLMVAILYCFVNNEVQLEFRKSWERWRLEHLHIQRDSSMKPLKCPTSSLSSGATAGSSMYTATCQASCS

Binder | Relative cAMP EC50, nM (0.1% casein) [1] | cAMP Rel EC50 (receptor-expressing HEK-293 cells, 1% HSA) [1] | Relative cAMP EC50, nM (0.1% casein) [2] | cAMP Rel EC50 (receptor-expressing HEK-293 cells, 1% HSA) [2] | Relative cAMP EC50, nM (0.1% casein) [3] | cAMP Rel EC50 (receptor-expressing HEK-293 cells, 1% HSA) [3] | Relative cAMP EC50 [1] | cAMP Rel EC50 (1% HSA) [1] | Relative cAMP EC50 [2] | cAMP Rel EC50 (1% HSA) [2] | Relative cAMP EC50 [3] | cAMP Rel EC50 (1% HSA) [3]
YXQGTXTSDXSIXLDXKAQXAFIEYLEEGGPSSGEPPPS (synthetic construct; SITE 2: note = 2-Aminoisobutyric Acid; SITE 6: note = alpha-methyl-2-fluoro-L-phenylalanine; SITE 10: note = 3-(4-Pyridyl)-L-alanine; SITE 13: note = alpha-methyl-leucine; SITE 16: note = L-ornithine; SITE 17: note = Lysine is chemically modified through conjugation of the epsil) [Example 486] | 0.375 nM | 35 nM | 0.0262 nM | 2.57 nM | 4.43 nM | 647 nM |  |  |  |  |  | 
YXQGTXTSDXSIXLDKKAQXAFIEYLEEGGPSSGAPPPE (non-natural residues; acylated Lys; C-terminal amide; synthetic construct; SITE 2: note = 2-Aminoisobutyric Acid; SITE 6: note = alpha-methyl-2-fluoro-L-phenylalanine; SITE 10: note = 4-nitro-L-phenylalanine; SITE 13: note = alpha-methyl-leucine; SITE 17: note = Lysine is chemically modified through conjugation of the epsilon-amino group of the Lysine) [Example 495] | 0.274 nM | 53.8 nM | 0.0361 nM | 5.74 nM | 1.75 nM | 205 nM |  |  |  |  |  | 
YXQGTXTSDXSIXLDKKAQXAFIEYLEEGGPSSGEPPPE (synthetic construct; SITE 2: note = 2-Aminoisobutyric Acid; SITE 6: note = alpha-methyl-2-fluoro-L-phenylalanine; SITE 10: note = 3-(4-Pyridyl)-L-alanine; SITE 13: note = alpha-methyl-leucine; SITE 17: note = Lysine is chemically modified through conjugation of the epsilon-amino group of the Lysine) [Example 487] | 0.639 nM | 27.7 nM | 0.0286 nM | 2.26 nM | 5.36 nM | 477 nM |  |  |  |  |  | 
YXQGTXTSDXXIXLDXKAQXXFIEXLIEGGPSSGEPEPSEG (synthetic construct; SITE 2: note = 2-Aminoisobutyric Acid; SITE 6: note = alpha-methyl-2-fluoro-L-phenylalanine; SITE 10: note = 3-(4-Pyridyl)-L-alanine; SITE 11: note = alpha-methyl-L-serine; SITE 13: note = alpha-methyl-leucine; SITE 16: note = L-ornithine; SITE 17: note = Lysine is chemically mo) [Example 481] | 0.204 nM | 14.2 nM | 0.0164 nM | 1.19 nM | 1.22 nM | 100 nM |  |  |  |  |  | 
YXQGTXTSDXXIXLDXKAQXXFIEYLIEGGPSSGAPEPSEG (synthetic construct; SITE 2: note = 2-Aminoisobutyric Acid; SITE 6: note = alpha-methyl-2-fluoro-L-phenylalanine; SITE 10: note = 3-(4-Pyridyl)-L-alanine; SITE 11: note = alpha-methyl-L-serine; SITE 13: note = alpha-methyl-leucine; SITE 16: note = L-ornithine; SITE 17: note = Lysine is chemically mo) [Example 492] | 0.146 nM | 9.85 nM | 0.0119 nM | 0.84 nM | 1.35 nM | 128 nM |  |  |  |  |  | 
YXQGTXTSDXSIXLDXKAQXXFIEXLIEGGPSSGEPPPEGT (synthetic construct; SITE 2: note = 2-Aminoisobutyric Acid; SITE 6: note = alpha-methyl-2-fluoro-L-phenylalanine; SITE 10: note = 3-(4-Pyridyl)-L-alanine; SITE 13: note = alpha-methyl-leucine; SITE 16: note = L-ornithine; SITE 17: note = Lysine is chemically modified through conjugation of the epsil) [Example 505] |  |  |  |  |  |  | 0.205 nM | 39 nM | 0.00707 nM | 2.1 nM | 0.445 nM | 92 nM
YXQGTXTSDXSIXLDXKAQXXFIEYLIEGGPSSGEPPPSEG (synthetic construct; SITE 2: note = 2-Aminoisobutyric Acid; SITE 6: note = alpha-methyl-2-fluoro-L-phenylalanine; SITE 10: note = 3-(4-Pyridyl)-L-alanine; SITE 13: note = alpha-methyl-leucine; SITE 16: note = L-ornithine; SITE 17: note = Lysine is chemically modified through conjugation of the epsil) [Example 489] | 0.172 nM | 11.8 nM | 0.0121 nM | 1.25 nM | 2.31 nM | 523 nM |  |  |  |  |  | 
YXQGTXTSDXSIXLDXKAQXXFIEYLLEGGPSSGEPPPEEG (synthetic construct; SITE 2: note = 2-Aminoisobutyric Acid; SITE 6: note = alpha-methyl-2-fluoro-L-phenylalanine; SITE 10: note = 3-(4-Pyridyl)-L-alanine; SITE 13: note = alpha-methyl-leucine; SITE 16: note = L-ornithine; SITE 17: note = Lysine is chemically modified through conjugation of the epsil) [Example 494] | 0.211 nM | 19.9 nM | 0.014 nM | 1.08 nM | 1.26 nM | 333 nM |  |  |  |  |  | 
YXQGTXTSDXXIXLDXKAQXXFIEYLIEGGPSSGEPPPSGT (synthetic construct; SITE 2: note = 2-Aminoisobutyric Acid; SITE 6: note = alpha-methyl-2-fluoro-L-phenylalanine; SITE 10: note = 3-(4-Pyridyl)-L-alanine; SITE 11: note = alpha-methyl-L-serine; SITE 13: note = alpha-methyl-leucine; SITE 16: note = L-ornithine; SITE 17: note = Lysine is chemically mo) [Example 502] |  |  |  |  |  |  | 0.326 nM | 30.6 nM | 0.0337 nM | 2.42 nM | 3.8 nM | 395 nM
YXQGTXTSDXXIXLDXKAQXNFIEYLIEGGPSSGEPPPEEG (synthetic construct; SITE 2: note = 2-Aminoisobutyric Acid; SITE 6: note = alpha-methyl-2-fluoro-L-phenylalanine; SITE 10: note = 3-(4-Pyridyl)-L-alanine; SITE 11: note = alpha-methyl-L-serine; SITE 13: note = alpha-methyl-leucine; SITE 16: note = L-ornithine; SITE 17: note = Lysine is chemically mo) [Example 482] | 0.177 nM | 14.9 nM | 0.0139 nM | 1.58 nM | 1.41 nM | 325 nM |  |  |  |  |  | 
HXQGTXTSDXXIXLDXKAQXNFIEYLLEGGPSSGEPPPE (synthetic construct; SITE 2: note = 2-Aminoisobutyric Acid; SITE 6: note = alpha-methyl-2-fluoro-L-phenylalanine; SITE 10: note = 3-(4-Pyridyl)-L-alanine; SITE 11: note = alpha-methyl-L-serine; SITE 13: note = alpha-methyl-leucine; SITE 16: note = L-ornithine; SITE 17: note = Lysine is chemically mo) [Example 478] | 0.243 nM | 28.6 nM | 0.106 nM | 26 nM | 8.07 nM | 665 nM |  |  |  |  |  | 
HXQGTXTSDXXIXLDXKAQXAFIEYLLEGGPSSGEPEPE (synthetic construct; SITE 2: note = 2-Aminoisobutyric Acid; SITE 6: note = alpha-methyl-2-fluoro-L-phenylalanine; SITE 10: note = 3-(4-Pyridyl)-L-alanine; SITE 11: note = alpha-methyl-L-serine; SITE 13: note = alpha-methyl-leucine; SITE 16: note = L-ornithine; SITE 17: note = Lysine is chemically mo) [Example 479] | 0.314 nM | 23.5 nM | 0.0905 nM | 7.11 nM | 5.98 nM | 432 nM |  |  |  |  |  | 
YXQGTXTSDXXIXLDXKAQXXFIEXLQEGGPSSGEPPPEGTE (synthetic construct; SITE 2: note = 2-Aminoisobutyric Acid; SITE 6: note = alpha-methyl-2-fluoro-L-phenylalanine; SITE 10: note = 3-(4-Pyridyl)-L-alanine; SITE 11: note = alpha-methyl-L-serine; SITE 13: note = alpha-methyl-leucine; SITE 16: note = L-ornithine; SITE 17: note = Lysine is chemically mo) [Example 503] |  |  |  |  |  |  | 0.525 nM | 26.1 nM | 0.0518 nM | 2.02 nM | 3.98 nM | 233 nM
YXQGTXTSDXXIXLDXKAQXXFIEYLIEGGPSSGEPPPSGTE (not fully specified; printed without C-terminal amide; synthetic construct; SITE 2: note = 2-Aminoisobutyric Acid; SITE 6: note = alpha-methyl-2-fluoro-L-phenylalanine; SITE 10: note = 3-(4-Pyridyl)-L-alanine; SITE 11: note = alpha-methyl-L-serine; SITE 13: note = alpha-methyl-leucine; SITE 16: note = L-ornithine; SITE 17: note = Lysine is chemically mo) [Example 522] |  |  |  |  |  |  | 0.51 nM | 35.5 nM | 0.033 nM | 1.95 nM | 6.32 nM | 441 nM
YXQGTXTSDXXIXLDXKAQXXFIEXLQEGGPSSGEPPPSGTE (synthetic construct; SITE 2: note = 2-Aminoisobutyric Acid; SITE 6: note = alpha-methyl-2-fluoro-L-phenylalanine; SITE 10: note = 3-(4-Pyridyl)-L-alanine; SITE 11: note = alpha-methyl-L-serine; SITE 13: note = alpha-methyl-leucine; SITE 16: note = L-ornithine; SITE 17: note = Lysine is chemically mo) [Example 504] |  |  |  |  |  |  | 0.253 nM | 16.5 nM | 0.0364 nM | 1.8 nM | 2.83 nM | 162 nM
YXQGTXTSDXXIXLDXKAQXNFIEYLIEGGPSSGEPPPEGE (synthetic construct; SITE 2: note = 2-Aminoisobutyric Acid; SITE 6: note = alpha-methyl-2-fluoro-L-phenylalanine; SITE 10: note = 3-(4-Pyridyl)-L-alanine; SITE 11: note = alpha-methyl-L-serine; SITE 13: note = alpha-methyl-leucine; SITE 16: note = L-ornithine; SITE 17: note = Lysine is chemically mo) [Example 483] | 0.188 nM | 18.2 nM | 0.0133 nM | 1.17 nM | 1.77 nM | 231 nM |  |  |  |  |  | 
YXQGTXTSDXXIXLDXKAQXXFIEYLIEGGPSSGEPPPSGTGE (synthetic construct; SITE 2: note = 2-Aminoisobutyric Acid; SITE 6: note = alpha-methyl-2-fluoro-L-phenylalanine; SITE 10: note = 3-(4-Pyridyl)-L-alanine; SITE 11: note = alpha-methyl-L-serine; SITE 13: note = alpha-methyl-leucine; SITE 16: note = L-ornithine; SITE 17: note = Lysine is chemically mo) [Example 523] |  |  |  |  |  |  | 0.482 nM | 27.1 nM | 0.021 nM | 0.869 nM | 3.79 nM | 234 nM
YXQGTXTSDXXIXLDXKAQXXFIEYLIEGGPSSGEPPPSGTGE (not fully specified; C-terminal amide; synthetic construct; SITE 2: note = 2-Aminoisobutyric Acid; SITE 6: note = alpha-methyl-2-fluoro-L-phenylalanine; SITE 10: note = 3-(4-Pyridyl)-L-alanine; SITE 11: note = alpha-methyl-L-serine; SITE 13: note = alpha-methyl-leucine; SITE 16: note = L-ornithine; SITE 17: note = Lysine is chemically mo) [Example 524] |  |  |  |  |  |  | 0.487 nM | 32.7 nM | 0.0266 nM | 1.46 nM | 5.11 nM | 464 nM
YXQGTFTSDXSXXLDKKAQXAFIEXLIEGGPSSGAPPPSGS (synthetic construct; SITE 2: note = 2-Aminoisobutyric Acid; SITE 10: note = 3-(4-Pyridyl)-L-alanine; SITE 12: note = L-ornithine; SITE 13: note = alpha-methyl-leucine; SITE 17: note = Lysine is chemically modified through conjugation of the epsilon-amino group of the Lysine side chain with (2-[2-(2-) [Example 497] |  |  |  |  |  |  | 1.08 nM | 161 nM | 0.297 nM | 32.6 nM | 2.7 nM | 418 nM
